Source: the DeepSol protein solubility set

Test: soluble on expression in E. coli; label from the status in PepcDB or PDB records

Q: Which “soluble on expression in E. coli” value does the source give for “MQIWHMEPFPCGDRRLPHHVFPPKKITTTQLGQLAGVQYYKVDLDDTASMKKRLSAVKTEKNVTFTDMFTVSETMLEFDDKMEQFYEPQVQKEDVISLVVEGTCYYDVEPEDDSWIRVQVEKGDLIVIPKGLSHRFTTTPQNFVKIQRFFSRKVEGNQG” here?
A: The value was “not soluble”.

Q: For “MQKPKLGKIKLLSAKEQVAAVLRKAILSRELVEGQEITLEGIAGMVGVSSMPVREAFQILAADGLIKVRPNKGAVVLGINEQTIREHYEIRALLESEAVAKASRPGSDISRIAQVHYAAEKALAENNSAEYSDLNQAFHMEIWNVAGNEKMKMLLCNMWNGLSMGHKVTEEEYAVISIQEHKSILQALELHDETLARQRMREHIIRSMENMLTRYVGDPSA”, which “soluble on expression in E. coli” value is on record?
A: The value was “not soluble”.

Q: Which “soluble on expression in E. coli” value does the source give for “MQKQKSFDKQTTKGKLYLVPTPIGNLEDMSIRCLNILKEATVIASEDTRNTQKLLNHFEITTPQISLHEHNYKERIPQLITRLLNGETIAQVSDAGMPSISDPGHELVTACLEEELAVIALPGPTAGMTALIASGLLPQPFTFYGFLPRKKKEQKDVLSALKEERPTQIFYESPYRIAKTVATFAEVYGQERPAVICRELTKLHEEYLRGTLGELTEYLAENTLKGECCLLVSGFTGEKETIAAMPAISLKEHVQVLMEEEGRSSKEAIKEVAKLRNVKKQEVYKEYHSI” here?
A: The value was “not soluble”.

Q: For “MQKSIDDMINEVLAVKVEKLPKTQDFSDLQEVCASKLQIINKEMDEADRKLEETLEKRKLVEKQLEDLQEQYKVKEFAFSLQKEFQDELKKVAEEIF”, which “soluble on expression in E. coli” value is on record?
A: Its value is “not soluble”.

Q: With “MQKTIYDVSFINGEVKTFTPLMLDNVMAEKELVARGGNIRENSIEFMAILTHKVCRRTYRENTPLDLDIFLESVLDIDTRVEEVTTFPEQNLDAHGPEPRHRT” as the sequence, how does the “soluble on expression in E. coli” value read?
A: The value was “not soluble”.

Q: Which “soluble on expression in E. coli” value does the source give for “MQLALVLSELGEYQVSNQWLLKIIHDLDETMYDCLYFLANNYACLGLFREATQYAEQYLTCESDGEFADDAADLLELLKLDRHDVSEEQEQLITMQERARHLLEQERFAEAIEALEAIVSRYPEFWSAHNNLALAYFYNGDVERAKQKLLEVLKRDPGNLHALCNALVFAYYLHDQEEVAALCETLASVYPFFREHQYKLGATFALVGRFDSAFRWLYRLYKNGFDGDGPFYYWLAYSAYHIGHESLARQVWETLTTLHPEKRGELEHHHHHH” here?
A: The value was “not soluble”.

Q: With “MQLTESLGIVLFNRNYREDDKLVKIFTEVAGKQMFFVKHISRSKMSSIIQPLTIADFIFKLNDTGLSYVVDYSNVNTYRYINNDIFRLAYASYVLALADAAIADNESDSHLFTFLKKTLDLMEEGLDYEILTNIFEIQILDRFGISLNFHECAICHRTDLPLDFSHRFSAVLCSEHYYKDNRRNHLDPNVIYLLSRFQKITFDDLRTISLNKDIKKKLRQFIDELYHDYVGIKLKSKTFIDNLVKWGDIMK” as the sequence, how does the “soluble on expression in E. coli” value read?
A: Its value is “not soluble”.

Q: For “MQLTPLQQAKPEKEEISPYAINNILSSTQSSPDNGNEADDKENSSVRRNTFPASSASTKKPRGTPYDRTNTPMTVVPQMPQFAPDFSNYNLTMNAWSEFFKKDRCMVCGDNSTGYHYGVQSCEGCKGFFRRSVHKNIAYVCTKGENCTFSYENCAANRGVRTRCQACRFAKCLAVGMNRDNVRVNKETDKDVKPSVASPNFEMTSQVKELTAAFVANMPCSTHLTSGTHAIGAIKKFIESVPALSSLLPKDEKALEMSIQKVMSGILAIRAAFTFDPITFYSCENPVNLLRGGIRNTVFNDCEVALLSGIHILQIVNGGVAEIFTSYCQGLRHQLSQTHLQEIGLCDRLLMRLGPYLNQ”, which “soluble on expression in E. coli” value is on record?
A: The value was “not soluble”.

Q: For “MQMLDRLESEILADRVSEESRRWLASCGLTVEQMKNQMDPVYTPARKIHLYHCDHRGLPLALISTEGATAWCAEYDEWGNLLSDENPHHLQQLIRLPGQQYDEESGLYYNRHRYYDPLLGRYITQDPIGLKGGWNFYQYPLNPVINVDPQGLVDINLYPESDLIHSVADEINIPGVFTIGGHGTPTSIESATRSIMTAKDLAYLIKFDGNYKDGMTVWLFSCNTGKGQNSFAS”, which “soluble on expression in E. coli” value is on record?
A: The value was “soluble”.

Q: For “MQPDNYFILAQKPITEPSASVMGQVKNDVKKEEPKNEEKKPGDENKNPAAVGAEGAGAAEKPQDKSQKPFPEIKMPTESMKKKKNTDNEIDKRKKMKTGFYQEKSDEDDTLEKIESLKVEQSDKTKKSQKKKLTLENGEKKV”, which “soluble on expression in E. coli” value is on record?
A: The value was “not soluble”.

Q: Which “soluble on expression in E. coli” value does the source give for “MQPQKNVTNKIAIHATTATVWDALVNPAKTKVYMFGCETVSDWKVGSELLWRGQHEGEDMVFVKGKILAIKPNKLLTYTVIDPFASYPDIPENYLNVTYKLEEQGPDTILTVTQDGFESAADGEKRYQDVNNKGEGWNPILVQIKALVESIQNLEHHHHHH” here?
A: Its value is “soluble”.

Q: Which “soluble on expression in E. coli” value does the source give for “MQPQSVLHSGYLHPLLRAWQTATTTLNASNLIYPIFVTDVPDDIQPITSLPGVARYGVKRLEEMLRPLVEEGLRCVLIFGVPSRVPKDERGSAADSEESPAIEAIHLLRKTFPNLLVACDVCLCPYTSHGHCGLLSENGAFRAEESRQRLAEVALAYAKAGCQVVAPSDMMDGRVEAIKEALMAHGLGNRVSVMSYSAKFASCFYGPFRDAAKSSPAFGDRRCYQLPPGARGLALRAVDRDVREGADMLMVKPGMPYLDIVREVKDKHPDLPLAVYHVSGEFAMLWHGAQAGAFDLKAAVLEAMTAFRRAGADIIITYYTPQLLQWLKEE” here?
A: Its value is “soluble”.

Q: For “MQPTETSQPAPSDQGRRLKDQLSESMSFSSQMKKEDDELSMKALSAFKAKEEEIEKKKMEIRERVQAQLGRVEDESKRLAMIREELEGFADPMRKEVTMVRKKIDSLDKELKPLGNTVQKKETEYKDALEAFNEKNKEKVELITKLQEGESEKFRFKKLEELSKNIDLTKP”, which “soluble on expression in E. coli” value is on record?
A: Its value is “not soluble”.

Q: With “MQQYAQRDKKHEYWFAVPQERTDHLYAFFIQWSPEIYAEDTGEYTREPGFIVVKKIEESETIEDSSNQAAAREWEITTREDINSKQVATVKADLESESFRPNLSDPSELLLPDQIEKLTKHLPPRTIGYPWTLVYGTGKHGTSLKTLYRTMTGLDTPVLMVIKDSDGQVFGALASEPLKVSDGFYGTGETFVFTFCPEFEVFKWTGDDMFFIKGDMDSLAFGGGGGEFALWLDGDLYHGRSHSCKTFGNRTLSKKEDFFIQDIEIWAFELEHHHHHH” as the sequence, how does the “soluble on expression in E. coli” value read?
A: The value was “not soluble”.

Q: For “MQRFLDSISAATQAKSPAEHETLVAMADLYAIITCVEYLERAWRANAVSDEDYTRNCSRLIAQFRATRQLVMDDVPSVISFLEEYHLAARAAMNRLQVGVPATVEHANSSDETRRRNFTAAAIQATEAFLTFRDALELGERSVDRLLPYLREILLVLGRMGAVFGTADGDATVQRERIVQWVRRLDAMHAYEQITEEDKRQLAHDVDTLYDTFRRRVGELEM”, which “soluble on expression in E. coli” value is on record?
A: Its value is “not soluble”.

Q: With “MQRKGDTPATLDLFADQTPQPRRDEQIGPGSWLFSGFALPAMPTLLLALEQTLGHSPFRHMLTPGGLSMSAALSSCGPLGWITDRHGYRYSDVDPQTGQPWPAMPDAFMQLAQSAALAAGYRGFVPDACLINRYIPGAKMSLHQDKDEHDHRWPVVSVSLGIPAIFQFGGMQRSDKTRRISLFHGDVVVWGGEDRLRFHGILPIKQAEHPLLGEQRINLTFRKAGRDSLEHHHHHH” as the sequence, how does the “soluble on expression in E. coli” value read?
A: Its value is “soluble”.

Q: For “MQRKLKVTSLEPGTVVITEQAVDTCFKAEFEQIVLGKRVIRKTDLNKKLVQELLLCSAELSEFTTVVGNTMCTLDFYEGQGRLDGALCSYTEKDKQAYLEAAYAAGVRNIEMESSVFAAMCSACGLQAAVVCVTLLNRLEGDQISSPRNVLSEYQQRPQRLVSYFIKKKLSKA”, which “soluble on expression in E. coli” value is on record?
A: The value was “not soluble”.

Q: With “MQRTLNVGVILCESFISNAQNPVNSYIKIYENVRMFEFAIKLLQESRINFQKILLYVLEEQIPLVEKVVAKYENCWVFRSKHNEVEDIYEAKGFIEDKYKIGLKSSKNQASSYYDNCCFVVLEACRPLTSKKVVKNVYEKAMIDGAAVAVLPFERQLVCGDNTKAVRQLKDKGNMNYWRQSSTWELQFPQAYTLNKLNQYHKNLFMKARNMLDLMNISAKNPLSIVDGSAYSFRVVTSLDFEILLGILRNG” as the sequence, how does the “soluble on expression in E. coli” value read?
A: Its value is “not soluble”.

Q: With “MQRVTITLDDDLLETLDSLSQRRGYNNRSEAIRDILRSALAQEATQQHGTQGFAVLSYVYEHEKRDLASRIVSTQHHHHDLSVATLHVHINHDDCLEIAVLKGDMGDVQHFADDVIAQRGVRHGHLQCLPKED” as the sequence, how does the “soluble on expression in E. coli” value read?
A: The value was “soluble”.
